# “Also recorded” adds a separate entry of the source.
# Target: T1, CRY1-CLOCK PAS-B domain complex (Mus musculus, UniProt P97784)
# T1 construct: His6 (N, cleaved yes); made in house; host or cells: CRY1 PHR: Sf9 insect cells (baculovirus)
# T1 sequence (P97784 with tags, fused parts or gaps): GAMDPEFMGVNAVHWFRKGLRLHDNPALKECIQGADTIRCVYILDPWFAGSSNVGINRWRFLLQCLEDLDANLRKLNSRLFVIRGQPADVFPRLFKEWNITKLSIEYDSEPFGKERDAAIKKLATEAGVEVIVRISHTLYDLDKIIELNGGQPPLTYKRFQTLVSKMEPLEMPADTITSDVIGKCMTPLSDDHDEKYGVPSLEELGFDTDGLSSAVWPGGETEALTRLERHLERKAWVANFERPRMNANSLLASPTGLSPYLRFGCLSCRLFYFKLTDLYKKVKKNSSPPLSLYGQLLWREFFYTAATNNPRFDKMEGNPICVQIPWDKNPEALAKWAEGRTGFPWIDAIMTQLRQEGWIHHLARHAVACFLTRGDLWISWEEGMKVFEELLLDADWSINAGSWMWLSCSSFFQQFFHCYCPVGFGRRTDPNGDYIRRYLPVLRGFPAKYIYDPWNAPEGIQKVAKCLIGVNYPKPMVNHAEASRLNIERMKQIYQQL
# Assay: Fluorescence polarization (FP)-based displacement assay of labeled CLOCK PAS-B from CRY1 PHR
# Format: binding
# Details: 100 μM peptide; 20 nM CLOCK PAS-B probe and 4 μM CRY1 PHR; triplicate wells; FIG. 13
# Description: Described in this example is a fluorescence polarization (FP)-based displacement assay developed by the inventors for identifying agents that disrupt the CRY1-CLOCK-BMAL1 ternary complex.
# CRY1 PHR and CLOCK PAS-B domain fluorescently labeled at its N-terminus were prepared as described in the preceding examples. Equipment/Reagents included the following: Greiner 384 Well Assay Plate, 120 μl rounded square wells, flat bottom, black polystyrene; Envision 2103 Multilabel Reader (2103-0020); Fluorescence Polarization (FP) assay buffer (50 mM Bis-Tris Propane, 100 mM NaCl, 2 mM TCEP, 0.05% Tween-20, 0.5% DMSO, pH 7.5); and GraphPad Prism (version 6 or higher). All assay components were buffer exchanged into FP buffer.
# A stock assay mixture of 8 μM CRY1 and 40 nM labeled CLOCK PAS-B was incubated at 4° C. overnight. Equal volumes (half of final well volume) stock assay mixture was dispensed into wells of the Greiner 384 Well Assay Plate, reserving wells for appropriate controls. […] Fluorescence polarization was measured using an Envision 2013 plate reader.
# A labeled CLOCK PAS-B-only control of 20 nM was used to determine the G-factor for FP. The G-factor should be variable “G” such that Fluorescence polarization (FP)=1000*(S−G*P)/(S+G*P). […] G=(S/P)*(1−27/1000)/(1+27/1000), with S being the parallel fluorescence intensity, and P being the perpendicular fluorescence intensity. […]
substance,measurement,value
"peptide encoded by CRY1 Exon 11: 23 residue peptide encoded by human CRY1 Exon 11 (residues 530-552), sequence CSQGSG1LHYAHGDSQQTHLLK; positive control inhibitor (CSQGSGILHYAHGDSQQTHLLK; listed as Homo sapiens)",displacement of CLOCK PAS-B from the CRY1 PHR,displaced CLOCK PAS-B from the CRY1 PHR; also recorded: able to displace CLOCK PAS-B from the CRY1 PHR

# — patent US12385914B2, “CRY1-clock-BMAL1 complex-disrupting agents and methods of identifying and using same” (The Regents of the University of California, priority 2017, dated 2025)
